B1: library; numbered along this chain (parent)
chain: MAAAGGARLLRAASAVLGGPAGRWLHHAGSRAGSSGLLRNRGPGGSAEASRSLSVSARARSSSEDKITVHFINRDGETLTTKGKVGDSLLDVVVENNLDIDGFGACEGTLACSTCHLIFEDHIYEKLDAITDEENDMLDLAYGLTDRSRLGCQICLTKSMDNMTVRVPETVADARQSIDVGKTS

Variants of: B1
Assay: scaled log2 fold change in cell abundance, elesclomol vs control (0 = silent mean, 1 = nonsense mean) (scaled log2 ratio); higher = higher viability under elesclomol (loss of FDX1 cuproptosis function)
Conditions: glucose 10 mM
[1] = with ABC1 FDX1 KO, elesclomol 5 nM, 14 days
[2] = with HEK293T FDX1 KO, elesclomol 40 nM, 11 days
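Further: variant abundance is its share of total variant reads in each endpoint sample, from next-generation sequencing of the integrated ORF PCR-amplified out of genomic DNA.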

| Variant | scaled log2 fold change [1] | scaled log2 fold change [2] |
| --- | --- | --- |
| MAAAGGARLLRAASAVLGGPAGRWLHHAGSRAGSSGLLRNRGPGGSAEASRSLSVSARARSSSEDKITVHFINRDGETLTTKGKVGDSLLDLVVENNLDIDGFGACEGTLACSTCHLIFEDHIYEKLDAITDEENDMLDLAYGLTDRSRLGCQICLTKSMDNMTVRVPETVADARQSIDVGKTS [V92L] | 0.019 |  |
| MAAAGGARLLRAASAVLGGPAGRWLHHAGSRAGSSGLLRNRGPGGSAEASRSLSVSYRARSSSEDKITVHFINRDGETLTTKGKVGDSLLDVVVENNLDIDGFGACEGTLACSTCHLIFEDHIYEKLDAITDEENDMLDLAYGLTDRSRLGCQICLTKSMDNMTVRVPETVADARQSIDVGKTS [A57Y] | -0.233 | 0.129 |
| MAAAGGARLLRAASAVLGGPAGRWLHHAGSRAGSSGLLRNRGPGGSAEASRSLSVSARARSSSEDKITVHFIQRDGETLTTKGKVGDSLLDVVVENNLDIDGFGACEGTLACSTCHLIFEDHIYEKLDAITDEENDMLDLAYGLTDRSRLGCQICLTKSMDNMTVRVPETVADARQSIDVGKTS [N73Q] | -0.00176 | 0.207 |
| MAAAGGARLLRAASAVLGGPAGRWLHHAGSRAGSSGLLRNRGPGGSAEASRSLSVSARARSSSEDKITVHFINRDGETLTTKGKVGDSLLDVVVENNLDIDGFGACEGTLACSTCHLIFEDHIYEKLDAITDEENDMLDLAYGLTDRSRLGCQICLTKSMDNMTSRVPETVADARQSIDVGKTS [V165S] | 0.00333 | 0.568 |
| MAAAGGARLLRAASAVLGGPAGRWLHHAGSRAGSSGLLRNRGPGGSAEASRSLSVSARARSSSEDKITVHFINRDGETLTTKGKVGDSLLDVVVENNLDIDGFGACEGTLACSTCHLIFEDHIYEKLDAITDEENDMLDLAYGLTDRSRLGCQICLTKSRDNMTVRVPETVADARQSIDVGKTS [M160R] | 0.249 | 0.049 |
| MAAAGGARLLRAASAVLGGPAGRWLHHAGSRAGSSGLLRNRGPGGSAEASRSLSVSARARSSSEDKITVHFINRDGETLTTKGKVGDSLLDVVVENNLDIDGFGACEGTLACSTCHLIFEDHIYEKLDAITDEENDMLDLAYGLTDRSRLGCQICLTKSMDNMTVRVPETVADAAQSIDVGKTS [R175A] | 0.455 | -0.138 |
| MAAAGGARLLRAASAVLGGPAGRWLHHAGSRAGSSGLLRNRGPGGSAEASRSLSVSARARSSSEDKITVHFINRDGETLTTKGKVGDSLLDVVVENNLDIDGFGACEGTLACSTCHLIFEDHIYEKLDAWTDEENDMLDLAYGLTDRSRLGCQICLTKSMDNMTVRVPETVADARQSIDVGKTS [I130W] | -0.285 | -0.314 |
| MAAAGGARLLRAASAVLGGPAGRWLHQAGSRAGSSGLLRNRGPGGSAEASRSLSVSARARSSSEDKITVHFINRDGETLTTKGKVGDSLLDVVVENNLDIDGFGACEGTLACSTCHLIFEDHIYEKLDAITDEENDMLDLAYGLTDRSRLGCQICLTKSMDNMTVRVPETVADARQSIDVGKTS [H27Q] | 0.286 | -0.318 |
| MAAAGGARLLRAASAVLGGPAGRWLHHAGSRAGSSGLLRNRGPGGSAEASRSLSVSARARSSSEDKITVHFINRDGETLTTKGKVGDSLLDVVVENNLDIDGFGACEGTLACSTCHLIFEDHIYEKLDAITDEENDMLDLAYGLTDRSRLGVQICLTKSMDNMTVRVPETVADARQSIDVGKTS [C152V] | 1.23 | 1.12 |
| MAAAGGARLLRAASAVLGGPAGRWLHHAGSRAGSSGLLRNRGPGGSAEASRSLSVSARARSSSEDKITVHFINRDGETLTTKGKVGDSLLDVVVENNLDIDGFGACEGTLACSTCHLIFEDHIYEKLDAITDEENDMLDLAYGLTDRSRLGCQICLTKSMDNMTVRVPMTVADARQSIDVGKTS [E169M] | -0.846 | 0.0592 |
| MAAAGGARLLRAASAVLGGPAGRWLHHAGSRAGSSGLLRNRGPGGSAEASRSLSVSARSRSSSEDKITVHFINRDGETLTTKGKVGDSLLDVVVENNLDIDGFGACEGTLACSTCHLIFEDHIYEKLDAITDEENDMLDLAYGLTDRSRLGCQICLTKSMDNMTVRVPETVADARQSIDVGKTS [A59S] | 0.217 | 0.732 |
| MAAAGGARLLRAASAVLGGPAGRWLHHAGSRAGSSGLLRNRGPGGSAEASRSLSVSARARSSSEDKITVHFINRDGETLTTKGKVPDSLLDVVVENNLDIDGFGACEGTLACSTCHLIFEDHIYEKLDAITDEENDMLDLAYGLTDRSRLGCQICLTKSMDNMTVRVPETVADARQSIDVGKTS [G86P] | 0.208 | 0.284 |
| MAAAGGARLLRAASAVLGGPAGRWLHHAGSRAGSSGLLRNRGPGGSAEASRSLSVSARARSSSEDKITIHFINRDGETLTTKGKVGDSLLDVVVENNLDIDGFGACEGTLACSTCHLIFEDHIYEKLDAITDEENDMLDLAYGLTDRSRLGCQICLTKSMDNMTVRVPETVADARQSIDVGKTS [V69I] | -0.0537 | -0.536 |
| MAAAGGWRLLRAASAVLGGPAGRWLHHAGSRAGSSGLLRNRGPGGSAEASRSLSVSARARSSSEDKITVHFINRDGETLTTKGKVGDSLLDVVVENNLDIDGFGACEGTLACSTCHLIFEDHIYEKLDAITDEENDMLDLAYGLTDRSRLGCQICLTKSMDNMTVRVPETVADARQSIDVGKTS [A7W] | 0.0847 | 0.227 |
| MAAAGGARLLRAASAVLGGPAGRWLHHAGSRAGSSGLLRNRGPGGSAEASRSLSVSARARSSSEDKITVHFINRDGETLTTKGWVGDSLLDVVVENNLDIDGFGACEGTLACSTCHLIFEDHIYEKLDAITDEENDMLDLAYGLTDRSRLGCQICLTKSMDNMTVRVPETVADARQSIDVGKTS [K84W] | 0.191 | -0.16 |
| MAAAGGARLLRAASAVLGGPAGRWLHHAGSRAGSSGLLRNRGPGGSAEASRSLSVSARARSSSEDKITVHFINRDGETLTTKGKVGDSLLDVVVENNLDIDGFGACEGTLACSTCHLIFEDHIYEKLDAITDEENDMLDLAYGLTDRSRLGCQIHLTKSMDNMTVRVPETVADARQSIDVGKTS [C155H] | -1.03 | -0.48 |
| MAAAGCARLLRAASAVLGGPAGRWLHHAGSRAGSSGLLRNRGPGGSAEASRSLSVSARARSSSEDKITVHFINRDGETLTTKGKVGDSLLDVVVENNLDIDGFGACEGTLACSTCHLIFEDHIYEKLDAITDEENDMLDLAYGLTDRSRLGCQICLTKSMDNMTVRVPETVADARQSIDVGKTS [G6C] | 0.339 | 0.86 |

From the supplement of paper PMC12855868
